Measurements as given in the nanobody polyreactivity screen of Harvey et al. (2022).

Test: yeast display, Sf9 membrane polyspecificity reagent, FACS + sequencing; frameworks hold sequencing errors
Procedure, shortened: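 A nanobody's polyreactivity label depends on the gate it was sorted from. Yeast display cells were stained with 10% biotinylated, detergent-solubilized Sf9 membrane reagent for 1 hour at 4 °C, enriched on streptavidin microbeads and sorted by FACS. The low and high (top ~1%) gates were set on anti-HA fluorescence for expression and streptavidin fluorescence for reagent binding.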

| Sequence | polyreactivity (PSR sort gate) |
| --- | --- |
| QVQLVESGGGLVQAGGSLRLSCAASGSIFYENAMGWYRKAPGKEREFVATIDLIGDRTYYADSVKGRFTISRDNAKNTVYLQMNSLKPEDTAVYYCAAERVGVFFRYDYWGQGTQVTVSS | low polyreactivity |
| QVQLVESGGGLVQAGGSLRLSCAASGSIFYFNAMGWYRQAPGKERELVARISGSSGRTYYADSVKGRFTISRDNAKNTVYLQMNSLKPEDTAVYYCAARYYTSATMDYWGQGTQVTVSS | high polyreactivity |
| QVQLVESGGGLVQAGGSLRLSCAASGSIFYFNAMGWYRQAPGKERELVASITSGGSTNYADSVKGRFTISRDNAKNTVYLQMNSLKPEDTAVYYCNARFPYLSRWLVRGLASYDYWGQGTQVTVSS | low polyreactivity |
| QVQLVESGGGLVQAGGSLRLSCAASGSIFYFYARGWYRLAPGKERELVAAIRFTGGTTYYADSVKGRFTISRDNAKNTVDLQMNSLKPEDTADYYCAKQTSYWSRGFDYWGQGTQVTVSS | low polyreactivity |
| QVQLVESGGGLVQAGGSLRLSCAASGSIFYGNAMGGYRQAPGKERELVASITYSGGNTQYADSVKGRFTISRDNAKNTVYLQMNSLKPEVTAVYYCNARRYGVDTGWRQGLDSWGQGTQVTVSS | low polyreactivity |
| QVQLVESGGGLVQAGGSLRLSCAASGSIFYGNAMGWYRPAPGKERELVAGITSGVGTNYADSVKGRFTISRDNAKNTVYLQMNSLKPEDTAVYYCAARVYRYRHYDYWGQGTQVTVSS | high polyreactivity |
| QVQLVESGGGLVQAGGSLRLSCAASGSIFYGNAMGWYRQAPGKEREFVAAINWSGARTYYADSVKGRFTISRDNAKNTVSLQMNSLKPEDTAVYYCAAGRPFSFRYEFDYWGQGTQVTVSS | high polyreactivity |
| QVQLVESGGGLVQAGGSLRLSCAASGSIFYGNAMGWYRQAPGKEREFVAGISWYGGSTYYADSVKGRFTISRDNAKNTVYLQMNSLKPEDTAVYYGATVADEPRAYSGYEESDYWGQGTQVTVSS | low polyreactivity |
| QVQLVESGGGLVQAGGSLRLSCAASGSIFYGNAMGWYRQAPGKERELVARISWSGSNTRYADSVKGRFTISRDNAKNTVYLQMNSLKPEDTAVYYCNVKPSARGSPLYDYWGQGTQVTVSS | high polyreactivity |
| QVQLVESGGGLVQAGGSLRLSCAASGSIFYGNAMGWYRQAPGKERELVASITYSGGTTNYADSVKGRFTISRDNAKNTVYLQMNSLKPEDTAVYYCNADIYPDRYGSTNYDFNYWGQGTQVTVSS | low polyreactivity |
| QVQLVESGGGLVQAGGSLRLSCAASGSIFYGYAMGWYRQAPGKEREFVAGIDSSGGSTSYADSVKGRFTISRDNAKNTVYLQMNSLKPEDTAVYYCNAPDPSDQHGDYWGQGTQVTVSS | low polyreactivity |
| QVQLVESGGGLVQAGGSLRLSCAASGSIFYGYAMGWYRQAPGKERELVAAIRSRGGSTYYADSVKGRFTNSRDNEKNTVYLQMKCLKPEDTAVYYCNAVCRARTLCSNTYGYWGQGTQVSVSS | high polyreactivity |
| QVQLVESGGGLVQAGGSLRLSCAASGSIFYGYAMGWYRQAPGKERELVAAISGGGRTNYADSVKGRFTISRDNAKNTVYLQMNSLKPEDTAVYYCARRSQRGIYSMYYWGQGTQVTVSS | low polyreactivity |
| QVQLVESGGGLVQAGGSLRLSCAASGSIFYGYAMGWYRQAPGKERELVAAISRGGSTYADSVKGRFTISRDNAKNTVYLQMNSLKPEDTAVYYCARRYWNCPLRGWYGYWGQGTQVTVSS | high polyreactivity |
| QVQLVESGGGLVQAGGSLRLSCAASGSIFYGYAMGWYRQAPGKERELVAAISRRGGSTYYADSVKGRFTISRDIAKNTVDLQMNSLKPEDTAVYYCAAVGLWYEYYYWGQGTQVTVSS | high polyreactivity |
| QVQLVESGGGLVQAGGSLRLSCAASGSIFYGYAMGWYRQAPGKERELVASITSSGGSTYYADSVKGRFTISRDNAKNTVYLQMNSLKPEDTAVYYCNADGRPDWYVVRGGFEYWGQGTQVTVSS | low polyreactivity |
| QVQLVESGGGLVQAGGSLRLSCAASGSIFYGYAMGWYSQAPGKERELVAAISSSGGSTYYADSVKGRFTISRDNAKNTVYLQMNSLKTEDTAVDYCAADWDFVNGWFNYWGKGTQVTVSS | high polyreactivity |
